From publication PMC10591882 (Cell reports, 2023)

Molecular target: T1, TBEV envelope protein domain III (EDIII) (Tick-borne encephalitis virus, Western …)
T1 chain: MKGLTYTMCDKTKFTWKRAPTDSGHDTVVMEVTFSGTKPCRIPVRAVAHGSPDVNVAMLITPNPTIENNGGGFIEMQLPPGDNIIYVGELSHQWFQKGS
Assay: cell-based or functional assay

B1: human monoclonal antibody T025 (antibody, V domains shown)
VH: QVQLVESGGGVVQPGRSLRLSCAASGFTFSNYGMHWVRQAPGKGLDWVAVISYDAISKSYADSVEGRFTISRDNSKNTLYLQMNSLRAEDSAVYYCAKSPTAIDPPFDYWGQGTLVTVSS
VL: EIVMTQSPATLSVSPGERATLSCWASQSVSSNLAWYQQKPGQAPRLLIYGASTRATGIPARFSASGSGTEFTLTISSLQSEDFAVYYCQQYNNWPPRFGQGTKVEIK
In the case of B1, the “IC50 of neutralisation of TBEV-Hypr (virus neutralization test on PS cells)” value is reported as 0.0293 mg/L.
